Measurements from patent US20260000597A1 (priority 2018, published 2026).

Biological target: AchR (Homo sapiens, UniProt P02708)
Experiment: ELISA of screened peptide phages on AchR versus streptavidin (OD450)
Format: binding
Conditions: ELISA of selected 14-mer (L3) peptide phages on AchR, absorbance at 450 nm; Spep-2 positive control
Procedure, shortened: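 Phage supernatants from 4th–5th round plaques, in 2% BSA, applied 1 h at 30 °C to wells coated with 5 μg/ml AchR or streptavidin. Bound phage detected with HRP anti-M13 and TMB at OD450; value given as AchR/streptavidin signal ratio.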

Chain of AchR (P02708 21-457): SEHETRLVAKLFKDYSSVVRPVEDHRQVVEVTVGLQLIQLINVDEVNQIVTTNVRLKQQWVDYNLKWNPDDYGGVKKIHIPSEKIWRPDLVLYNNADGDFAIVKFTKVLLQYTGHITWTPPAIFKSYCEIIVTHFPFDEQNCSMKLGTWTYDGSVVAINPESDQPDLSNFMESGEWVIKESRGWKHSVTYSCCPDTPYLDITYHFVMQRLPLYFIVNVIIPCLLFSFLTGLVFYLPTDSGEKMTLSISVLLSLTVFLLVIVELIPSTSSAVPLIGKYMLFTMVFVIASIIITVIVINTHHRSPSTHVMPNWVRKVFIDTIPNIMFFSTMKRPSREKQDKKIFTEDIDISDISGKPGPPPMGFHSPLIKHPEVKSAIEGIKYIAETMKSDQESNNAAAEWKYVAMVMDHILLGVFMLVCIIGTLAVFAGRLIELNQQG

Substance | OD
L3-4 (MPQKLKKLDIRNHN; AchR binding peptide) [Peptide L3-4] | 0.905
L3-5 (NEDRGKRPHIRVLG; AchR binding peptide) [Peptide L3-5] | 0.82
L3-6 (EFVKLRKARLRGPQ; AchR binding peptide) [Peptide L3-6] | 0.77
L3-7 (EGDKFRRHDIKYNF; AchR binding peptide) [Peptide L3-7] | 0.803
L3-8 (PICRWKRAPFKWYF; AchR binding peptide) [Peptide L3-8] | 0.777
L3-9 (NCNRFRRTIVRHCH; AchR binding peptide) [Peptide L3-9] | 0.725
L3-10 (AHGKDRRYVEKLEV; AchR binding peptide) [Peptide L3-10] | 0.769
L3-11 (FMQKCKKWWDRAVF; AchR binding peptide) [Peptide L3-11] | 0.8
L3-12 (DPPKKRKSLLRRVS; AchR binding peptide) [Peptide L3-12] | 0.882
L3-13 (YCTRIRREGMKGSE; AchR binding peptide) [Peptide L3-13] | 0.862
L3-14 (FPGKSKKQWHRLWP; AchR binding peptide) [Peptide L3-14] | 0.892
L3-15 (YEPRFKRPYGKWCH; AchR binding peptide) [Peptide L3-15] | 0.859
L3-16 (DYLRSRKMEERFQE; AchR binding peptide) [Peptide L3-16] | 0.797
L3-17 (VGPKFRKNHRRQNR; AchR binding peptide) [Peptide L3-17] | 0.812
L3-18 (EYQKCKKPSFRLTM; AchR binding peptide) [Peptide L3-18] | 0.806
L3-19 (YMKKKRKSLLRTSL; AchR binding peptide) [Peptide L3-19] | 0.796
L3-20 (CCFKLKKAYNKGPF; AchR binding peptide) [Peptide L3-20] | 0.755
L3-21 (NPMKLRKAETKHNV; AchR binding peptide) [Peptide L3-21] | 0.843
L3-22 (HSLKTRKSAFKSNT; AchR binding peptide) [Peptide L3-22] | 0.83
L3-23 (QYHKVRKLWFRVEP; AchR binding peptide) [Peptide L3-23] | 0.799
L3-24 (FVRKKRKSLLRDTR; AchR binding peptide) [Peptide L3-24] | 0.846
L3-25 (CFQRKRKSLLRVLR; AchR binding peptide) [Peptide L3-25] | 0.807

Substance | OD
L3-26 (VPMKYRRCGNRQSN; AchR binding peptide) [Peptide L3-26] | 0.802
L3-29 (CASKPRRTYLRAAN; AchR binding peptide) [Peptide L3-29] | 0.789
L3-30 (WAHKCKKPGQRIPP; AchR binding peptide) [Peptide L3-30] | 0.771
L3-31 (LSDKKRKSLLRYDY; AchR binding peptide) [Peptide L3-31] | 0.763
L3-32 (CATRGKKVFSKRTM; AchR binding peptide) [Peptide L3-32] | 0.845
L3-33 (LRQRSKRVLEKLRP; AchR binding peptide) [Peptide L3-33] | 0.751
L3-34 (LGWKKRKSLLRRHV; AchR binding peptide) [Peptide L3-34] | 0.74
L3-35 (LQCKYRRGSDKQPQ; AchR binding peptide) [Peptide L3-35] | 0.747
L3-36 (AFSRIKRGVLKLLS; AchR binding peptide) [Peptide L3-36] | 0.787
L3-38 (TVVKSRKCSVRYNW; AchR binding peptide) [Peptide L3-38] | 0.669
L3-39 (DDVKQRKKHPRVQT; AchR binding peptide) [Peptide L3-39] | 0.654
L3-40 (ASPKGRRPTFRPQH; AchR binding peptide) [Peptide L3-40] | 0.733
L3-41 (GWLKAKRFPSRPPT; AchR binding peptide) [Peptide L3-41] | 0.81
L3-42 (ETNRTRKQCYKTTF; AchR binding peptide) [Peptide L3-42] | 0.71
L3-43 (FTHKNRRDSLRVWM; AchR binding peptide) [Peptide L3-43] | 0.93
L3-44 (PPFRLRKPLWRPQR; AchR binding peptide) [Peptide L3-44] | 0.719
L3-45 (PGNRMKKYQNRVHG; AchR binding peptide) [Peptide L3-45] | 0.735
L3-46 (SAHKKRKQTLRCSE; AchR binding peptide) [Peptide L3-46] | 0.618
L3-47 (LYEKYKKHNNREDD; AchR binding peptide) [Peptide L3-47] | 0.558
L3-48 (PHCRQKKFWIRCGT; AchR binding peptide) [Peptide L3-48] | 0.622
L3-49 (VAFKTRRRVQRQSG; AchR binding peptide) [Peptide L3-49] | 0.629
L3-50 (VFDKFRKTENRGVI; AchR binding peptide) [Peptide L3-50] | 0.634

Substance | OD
L3-51 (NHHKTKRCSVRFNI; AchR binding peptide) [Peptide L3-51] | 0.754
L3-52 (GTFKWRKSGARQYL; AchR binding peptide) [Peptide L3-52] | 0.757
L3-53 (HCLRTKKLINKICS; AchR binding peptide) [Peptide L3-53] | 0.679
L3-54 (FFLRCRRLLGKVQV; AchR binding peptide) [Peptide L3-54] | 0.784
L3-55 (HFPRARRFEHRCML; AchR binding peptide) [Peptide L3-55] | 0.706
L3-56 (QISKLKRPSYRGDD; AchR binding peptide) [Peptide L3-56] | 0.703
L3-57 (EEIKQKKLHLRVWF; AchR binding peptide) [Peptide L3-57] | 0.674
L3-58 (SLPKWRKGGDRVFT; AchR binding peptide) [Peptide L3-58] | 0.664
L3-59 (HVYKNRRVWGKGWP; AchR binding peptide) [Peptide L3-59] | 0.659
L3-60 (EDLRCKKLELRSVI; AchR binding peptide) [Peptide L3-60] | 0.574
L3-61 (THDKCKKHNDKQAH; AchR binding peptide) [Peptide L3-61] | 0.768
L3-62 (YPERPRKLQDKSYS; AchR binding peptide) [Peptide L3-62] | 0.766
L3-63 (CPWRNRKAMIKGII; AchR binding peptide) [Peptide L3-63] | 0.794
L3-64 (HEIKQKKYFHRGHD; AchR binding peptide) [Peptide L3-64] | 0.799
L3-65 (CLEKLRKAVHRQRR; AchR binding peptide) [Peptide L3-65] | 0.731
L3-66 (YISKSKKTAGRWFW; AchR binding peptide) [Peptide L3-66] | 0.738
L3-67 (VTWKFRKAEKRWGY; AchR binding peptide) [Peptide L3-67] | 0.786
L3-68 (YSSKSRKLSPRTPR; AchR binding peptide) [Peptide L3-68] | 0.792
L3-69 (CVNRVKKSDSKGTW; AchR binding peptide) [Peptide L3-69] | 0.733
L3-70 (DHERERRLWSRFPF; AchR binding peptide) [Peptide L3-70] | 0.781
L3-71 (PLIKVKRGVGKLWN; AchR binding peptide) [Peptide L3-71] | 0.78
L3-72 (TGCRCKRSMYKNLH; AchR binding peptide) [Peptide L3-72] | 0.746

Substance | OD
L3-73 (WTCRMRKYQLRTSE; AchR binding peptide) [Peptide L3-73] | 0.771
L3-74 (IAIRPRKMTLKIHP; AchR binding peptide) [Peptide L3-74] | 0.726
L3-75 (QIPKQKKQEQRAIS; AchR binding peptide) [Peptide L3-75] | 0.72
L3-76 (QMGKFKKISLKNTF; AchR binding peptide) [Peptide L3-76] | 0.701
L3-77 (VLIKQRKWQDRSCS; AchR binding peptide) [Peptide L3-77] | 0.688
L3-78 (FITKSRRQQFRNQG; AchR binding peptide) [Peptide L3-78] | 0.712
L3-79 (QQFKYRRECVKYGS; AchR binding peptide) [Peptide L3-79] | 0.701
L3-80 (MEGREKKSYNKGEN; AchR binding peptide) [Peptide L3-80] | 0.589
L3-81 (PTWRHRRYCAKDIG; AchR binding peptide) [Peptide L3-81] | 0.775
L3-82 (HMCRSKRVAWKNLI; AchR binding peptide) [Peptide L3-82] | 0.783
L3-83 (SYLKCKRSDYKEVP; AchR binding peptide) [Peptide L3-83] | 0.768
L3-84 (HTFKLRKLCQKLFE; AchR binding peptide) [Peptide L3-84] | 0.739
L3-85 (QLVKLRKLARRVSY; AchR binding peptide) [Peptide L3-85] | 0.735
L3-86 (SEVRPKKDHSRLFI; AchR binding peptide) [Peptide L3-86] | 0.755
L3-87 (FLEKCRKFIIRVST; AchR binding peptide) [Peptide L3-87] | 0.743
L3-88 (PETRHRKMFIRDFW; AchR binding peptide) [Peptide L3-88] | 0.7
L3-89 (EWCKNKRWHSREYP; AchR binding peptide) [Peptide L3-89] | 0.624
L3-90 (LWNRYKKLLMRIFW; AchR binding peptide) [Peptide L3-90] | 0.818
L3-91 (CWCRQRKCFHKPWI; AchR binding peptide) [Peptide L3-91] | 0.749
